Consider four molecules from US20040123344A1, “Novel gene encoding an f-box protein which regulates leaf longevity in arabidopsis thaliana and mutant gene thereof” (priority 2000, published 2004).

For one series, the target named is T1, ASK1(1-160) (Arabidopsis thaliana, UniProt Q39255).
T1 construct: constructing the plasmid pGAD424-ASK1(1-160)[3] expressing fusion protein of ASK1 and GAL4-4AD; expressed in transfected cells; host or cells: Saccharomyces cerevisiae HF7c
T1 sequence (Q39255 1-160): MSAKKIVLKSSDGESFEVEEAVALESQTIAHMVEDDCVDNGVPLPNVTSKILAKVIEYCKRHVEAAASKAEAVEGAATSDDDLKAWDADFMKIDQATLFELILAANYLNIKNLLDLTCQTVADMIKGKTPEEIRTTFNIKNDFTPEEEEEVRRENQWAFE
Put plainly: Yeast two-hybrid assay with ASK1. Format: cell-based. Conditions: HF7c yeast; for binding with ASK1 in yeast two-hybrid assay: GAL4-BD fusion. From the text:
As expression vectors of expressing GAL4 DNA binding domain (GAL4-BD) and ORE9 fusion protein, plasmids pGBT9-ORE9 (1-49) and pGBT9-ORE9 (50-693) were constructed. The plasmid pGBT9-ORE9 expresses a fragment of ORE9 containing N-terminal 1-49th amino acids corresponding to an F-box region of ORE9, and the plasmid pGBT9-ORE9 (50-693) expresses a fragment of ORE9 containing 50-693th amino acids from which the F-box region was removed.
First, the gene encoding the ORE9 (1-49) fragment was amplified by PCR using a primer represented by SEQ ID NO: 10 and SEQ ID NO: 11, and then inserted into BamHI and PstI restriction enzyme sites of pGBT9 (Clontech, USA) containing a 4-BD gene and a tryptophan auxotrophic selection marker gene (TRP1), thereby constructing the plasmid pGBT9-ORE9 (1-49). Similarly, the plasmid pGBT 9-ORE9 (50-693) was constructed, which expresses an ORE9 (50-693) fragment and a GAL4-BD fusion protein. In this case, oligonucletides represented by SEQ ID NO: 12 and SEQ ID NO: 13 were used as PCR primers to amplify the gene encoding the ORE9 (50-693) fragment.
Meanwhile, regarding ASK1(1-160) and ASK2(1-172) proteins used for identification of binding, pGAD424-ASK1(1-160) and pGAD424-ASK2(1-172) were constructed in such a manner that ASK1(1-160) and ASK2(1-172) are expressed in the form of a fusion protein with a […]. pGTE-ASK1(1-160) containing an ASK1(1-160) gene was digested with BamHI and PstI, and then inserted into pGAD424 (Clontech, USA) containing a GAL4-AD gene and a leucine auxotrophic selection marker gene (LEU2), thereby constructing the plasmid pGAD424-ASK1(1-160)[3] expressing fusion protein of ASK1 and GAL4-4AD. Similarly, the plasmid pGAD424-ASK2(1-172)[4] was constructed by inserting a BamHI/PstI fragment of pGTE-ASK2(1-172) into pGAD424.
Yeast strains, HF7c, were cultured in an YPD (yeast extract, peptone, dextrose) medium or a synthetic minimal medium (SD) containing 2% dextrose.
The HF7c yeast strains grown in the medium were transformed with different combinations of the vectors constructed in the above Example 6-1) ([1+3], [2+3] and [1+4]; see the left upper portion of FIG. 7b), respectively, by the lithium acetate method (Feilotter et al., 1994). The transformants were selected in a synthetic minimal medium containing 2% dextrose. The transformants were cultured in a SD medium from which tryptophan and leucine were removed (see the right upper portion of FIG. 7b), and in a SD medium from which tryptophan, leucine and histidine were removed and which contains 2 mM 3-amino-1,2,4-triazole (3-AT) (see the left lower portion of FIG. 7b).
The transformants were grown in a synthesis minimal medium, and the grown yeast colonies were examined for β-galactosidase activities on a filter paper. […]

Another series addresses T2, GST-ASK1 fusion protein (Arabidopsis thaliana, UniProt Q39255).
T2 construct: made in house; host or cells: Escherichia coli BL21(DE3) pLysS
T2 sequence (Q39255 1-160): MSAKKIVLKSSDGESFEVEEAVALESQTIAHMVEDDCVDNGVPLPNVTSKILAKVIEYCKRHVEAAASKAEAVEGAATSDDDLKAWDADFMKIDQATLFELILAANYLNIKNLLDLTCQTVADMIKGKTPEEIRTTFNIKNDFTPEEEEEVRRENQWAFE
Put plainly: In vitro binding assay with GST-ASK1 fusion protein. As to conditions: 35S-labeled in vitro translation product; glutathione beads; GST as negative control. An excerpt:
In order to examine that ORE9 protein or derivatives thereof directly bind with ASK1, a GST-ASK1 fusion protein and a ^35S-labeled ORE9 protein produced by in vitro translation were subjected to in vitro binding assay. To obtain a glutathione S-transferase (GST) protein and a GST-ASK1 fusion protein, a vector pGEX (APBiotech, Co.) and a vector pGEX-ASK1 were constructed, which express the above proteins, respectively. Artificial sequences represented by SEQ ID NO: 14 and SEQ ID NO: 15 were used as PCR primers to amplify a gene encoding the ASK1 fragment. The resulting PCR product was digested with EcoRI and NcoI restriction enzymes, and inserted into the restriction enzyme sites of the pGEX vector. Escherichia coli BL21(DE3) pLysS was transformed with the resulting two vectors, and GST and GST-ASK1 fusion proteins were expressed. The GST and GST-ASK1 fusion proteins were purified by chromatography with glutathione-Sepharose 4B beads. The purified proteins was subjected to electrophoresis with SDS-polyacryamide gets, dyed with Coomassie blue, and measured for their amount. GST and GST-ASK1 fusion proteins of the same amount were added to glutathione beads, which had been previously washed with 10-fold volume of B buffer (20 mM […], pH 7.6, 150 mM sodium chloride, 10% glycerol, 0.5% NP-40, 1 mM DTT) three times. Then, the resulting proteins were adsorbed 4° C. for one hour using a rotating mixer. The provided beads were washed with 1 ml B buffer three times, and then stored in a state where the ratio of slurries relative to B buffer is 50%.
Meanwhile, a radioactivity-labeled ORE9 (1-693), the mutant type ore9 and ORE9 derivatives (1-327 and 50-693) were prepared using the in vitro transcription/translation system (Promega, USA) and [^35S]-methionine (DuPont NEN, USA). The proteins were quantitatively analyzed with SDS-PAGE and BAS radioanalytic imaging system (Japan). Then, the respective ^35S-labeled translation products of the same amount were mixed with 60 μl GST-adsorbed beads or GST-ASK1 fusion protein-absorbed beads, contained in 1 ml GB buffer (final concentration: 20 mM Tris-HCl, pH 7.5, 0.15% NP-40, 150 mM NaCl, 1 mM EDTA). The resulting beads were cultured in a rotating mixer at 4° C. for two hours, and then washed with 1 ml GB buffer four times. The washed beads were added with 30 μl of 2×SDS sample solutions, boiled for three minutes and then isolated with SDS-PAGE. The resulting gels were dried to dryness, and then exposed to X-ray film.

B1: ORE9 (50-693): fragment of ORE9 containing 50-693th amino acids from which the F-box region was removed (protein)
chain: MKLLSSIEQACDICRLKKLKCSKEKPKCAKCLKNNWECRYSPKTKRSPLTRAHLTEVESRLERLEQLFLLIFPREDLDMILKMDSLQDIKALLTGLFVQDNVNKDAVTDRLASVETDMPLTLRQHRISATSSSEESSNKGQRQLTVSIRGNARDLSLVPDCFRSISHLDLSFLSPWGHTLLASLPIDHQNLLALRLKFCFPFVESLNVYTRSPSSLELLLPQWPRIRHIKLLRWHQRASQIPTGGDFVPIFEHCGGFLESLDLSNFYHWTEDLPPVLLRYADVAARLTRLDLLTASFTEGYKSSEIVSITKSCPNLKTFRVACTFDPRYFEFVGDETLSAVATSSPKLTLLHMVDTASLANPRAIPGTEAGDSAVTAGTLIEVFSGLPNLEELVLDVGKDVKHSGVALEALNSKCKKLRVLKLGQFQGVCSATEWRRLDGVALCGGLQSLSIKNSGDLTDMGLVAIGRGCCKLTTFEIQGCENVTVDGLRTMVSLRSKTLTDVRISCCKNLDTAASLKAIEPICDRIKRLHIDCVWSGSEDEEVEGRVETSEADHEEEDDGYERSQKRCKYSFEEEHCSTSDVNGFCSEDRVWEKLEYLSLWINVGEFLTPLPMTGLDDCPNLEEIRIKIEGDCRGKRRPAEPEFGLSCLALYPKLSKMQLDCGDTIGFALTAPPMQMDLSLWERFFLTGIGSLSLSELDYWPPQDRDVNQRSLSLPGAGLLQECLTLRKLFIHGTAHEHFMNFLLRIPNLRDVQLRADYYPAPENDMSTEMRVGSCSRFEDQLNSRNIID
On to B1, for which the “binding with ASK1 in yeast two-hybrid assay” value in the series with ASK1(1-160) was “fails to bind with ASK1”. Moreover, the “binding (co-precipitation) with GST-ASK1” value in the series with GST-ASK1 fusion protein is given as “fails to bind with GST-ASK1”.

B2: ORE9 (1-693): complete ORE9 protein, 693 amino acids, F-box motif and 18 LRRs, SEQ ID NO: 2 (protein, listed as Arabidopsis thaliana)
chain: MASTTLSDLPDVILSTISSLVSDSRARNSLSLVSHKFLALERSTRSHLTIRGNARDLSLVPDCFRSISHLDLSFLSPWGHTLLASLPIDHQNLLALRLKFCFPFVESLNVYTRSPSSLELLLPQWPRIRHIKLLRWHQRASQIPTGGDFVPIFEHCGGFLESLDLSNFYHWTEDLPPVLLRYADVAARLTRLDLLTASFTEGYKSSEIVSITKSCPNLKTFRVACTFDPRYFEFVGDETLSAVATSSPKLTLLHMVDTASLANPRAIPGTEAGDSAVTAGTLIEVFSGLPNLEELVLDVGKDVKHSGVALEALNSKCKKLRVLKLGQFQGVCSATEWRRLDGVALCGGLQSLSIKNSGDLTDMGLVAIGRGCCKLTTFEIQGCENVTVDGLRTMVSLRSKTLTDVRISCCKNLDTAASLKAIEPICDRIKRLHIDCVWSGSEDEEVEGRVETSEADHEEEDDGYERSQKRCKYSFEEEHCSTSDVNGFCSEDRVWEKLEYLSLWINVGEFLTPLPMTGLDDCPNLEEIRIKIEGDCRGKRRPAEPEFGLSCLALYPKLSKMQLDCGDTIGFALTAPPMQMDLSLWERFFLTGIGSLSLSELDYWPPQDRDVNQRSLSLPGAGLLQECLTLRKLFIHGTAHEHFMNFLLRIPNLRDVQLRADYYPAPENDMSTEMRVGSCSRFEDQLNSRNIID
In the case of B2, the “binding with ASK1 in yeast two-hybrid assay” value with ASK1(1-160) is recorded as “did not exhibit positive signals for binding to ASK1”. The “binding (co-precipitation) with GST-ASK1” value in the series with GST-ASK1 fusion protein is listed as “directly bound to ASK1”.

B3: ORE9(1-49): fragment of ORE9 containing N-terminal 1-49th amino acids corresponding to the F-box region (protein)
chain: MKLLSSIEQACDICRLKKLKCSKEKPKCAKCLKNNWECRYSPKTKRSPLTRAHLTEVESRLERLEQLFLLIFPREDLDMILKMDSLQDIKALLTGLFVQDNVNKDAVTDRLASVETDMPLTLRQHRISATSSSEESSNKGQRQLTVSMASTTLSDLPDVILSTISSLVSDSRARNSLSLVSHKFLALERSTRSHLT
As to B3, in the series with ASK1(1-160) (GAL4-BD fusion with GAL4-AD-ASK1(1-160), SD medium without tryptophan, leucine, histidine, 2 mM 3-AT), the “growth of transformed yeast in histidine deficient medium” value is reported as “grown in the histidine deficient medium”. In addition, the “β-galactosidase activity of transformed yeast” value with ASK1(1-160) (with ASK1(1-160) plasmid, X-gal filter assay) is recorded as “exhibit the β-galactosidase activity”.

B4: ORE9 (1-327): part of ORE9 (1-327) containing the F-box region (protein, UniProt Q9SIM9 1-327, looked up, fragment)
chain: MASTTLSDLPDVILSTISSLVSDSRARNSLSLVSHKFLALERSTRSHLTIRGNARDLSLVPDCFRSISHLDLSFLSPWGHTLLASLPIDHQNLLALRLKFCFPFVESLNVYTRSPSSLELLLPQWPRIRHIKLLRWHQRASQIPTGGDFVPIFEHCGGFLESLDLSNFYHWTEDLPPVLLRYADVAARLTRLDLLTASFTEGYKSSEIVSITKSCPNLKTFRVACTFDPRYFEFVGDETLSAVATSSPKLTLLHMVDTASLANPRAIPGTEAGDSAVTAGTLIEVFSGLPNLEELVLDVGKDVKHSGVALEALNSKCKKLRVLKLGQ
In the case of B4, the “binding (co-precipitation) with GST-ASK1” value with GST-ASK1 fusion protein is listed as “co-precipitated with the GST-ASK1 fusion protein”.
